{
  "source": "patent US7247611",
  "about": "(University of Pennsylvania, dated 2007)",
  "binders": {"B1": {"name": "peptide EEIIMR (SEQ ID NO: 5) (peptide)", "peptide": "EEIIMR", "notes": "Synthetic variant of EEIIMD with Arg at the carboxyl terminus; also called control peptide EEIIMR"}},
  "target": "T1, single chain urokinase-type plasminogen activator (UniProt P00749 21-431, radiolabeled with 125I (iodobeads) in the binding assays)",
  "T1 construct": "scuPA alone, without peptide; also called scuPA; recombinant scuPA",
  "assay": "125I-scuPA on LM-TK- cells with peptide (FIG. 1A); indirect read-out of the peptide acting on scuPA",
  "protocol": "The cells were washed four times with binding buffer, solubilized in 0.1 N NaOH, and the cell extract was assessed for radioactivity. […] Assays were repeated at least three times, and data presented herein represent the mean and standard deviation.",
  "data": [
    {"binder": "B1", "values": [
      {"measurement": "scuPA-binding-promoting activity relative to peptide EEIIMD", "result": "~20", "unit": "%"}
    ]}
  ]
}
